In patent US20060269997A1 (Genentech, published 2006):

How the values were obtained:
KDR (1-3) monomer [1] = target: T1, KDR (1-3) monomer (UniProt P35968 20-327, limits assumed, biotin-labeled in the ELISA of Example 8); assay: competition ELISA: plate coated with VEGF (8-109), 100 pM biotin-labeled KDR(1-3), serial dilutions of the competing VEGF (Example 8)
T1 construct: domain: domains 1 to 3; Genentech reagent; also called domains 1 to 3 of KDR
Experimental: (§1) After 1 hour, the plates were washed, and the bound protein stained with streptavidin horseradish peroxidase conjugate (Pharmacia) and assayed. Affinities were estimated as IC₅₀ values: the concentration of KDR(1-3) or Flt(1-3) that blocked 50% of protein binding.

Flt-1 (1-3) monomer = target: T2, Flt-1 (1-3) monomer (UniProt P17948 27-331, limits assumed, biotin-labeled in the ELISA of Example 8); assay: competition ELISA: plate coated with VEGF (8-109), 100 pM biotin-labeled Flt1(1-3), serial dilutions of the competing VEGF (Example 8)
T2 construct: domain: domains 1 to 3; Genentech reagent; also called Flt(1-3); domains 1 to 3 of Flt-1
Experimental: as §1

KDR (1-3) monomer [2] = target: T1, KDR (1-3) monomer; assay: competition ELISA vs biotinylated VEGF (8-109), soluble KDR (1-3) captured by MAKD5
Experimental: Receptor binding assays were performed in 96-well immunoplates (Maxisorp, Nunc-Immunoplate, Nalge Nunc International, Rochester, N.Y.). Each well was coated with 100 μl of a solution containing 8 μg/ml of a monoclonal antibody to KDR known as MAKD5 (Genentech, South San Francisco, Calif.) in 50 mM carbonate buffer at pH 9.6 and incubated at 4° C. overnight. The supernatant was discarded, the wells were washed three times in washing buffer (0.05% Tween 20 in PBS), and the plate was blocked (150 μl per well) with block buffer (0.5% BSA, 0.01% thimerosal in PBS) at room temperature for one hour. The supernatant was discarded, and the wells were washed.
Aliquots of this mixture (100 μl) were added to the precoated microtiter wells and the plate was incubated for 1 hour at room temperature. […] The wells were then incubated with 3,3′, 5,5′-tetramethyl benzidine (0.2 gram/liter; Kirkegaard & Perry Laboratories, Gaithersburg, Md.) for about 10 minutes at room temperature. Absorbance was read at 450 nm on a Vmax plate reader (Molecular Devices, Menlo Park, Calif.).
Titration curves were fit with a four-parameter nonlinear regression curve-fitting program (KaleidaGraph, Synergy Software, Reading, Pa.).

T1 sequence (P35968 20-327 limits assumed): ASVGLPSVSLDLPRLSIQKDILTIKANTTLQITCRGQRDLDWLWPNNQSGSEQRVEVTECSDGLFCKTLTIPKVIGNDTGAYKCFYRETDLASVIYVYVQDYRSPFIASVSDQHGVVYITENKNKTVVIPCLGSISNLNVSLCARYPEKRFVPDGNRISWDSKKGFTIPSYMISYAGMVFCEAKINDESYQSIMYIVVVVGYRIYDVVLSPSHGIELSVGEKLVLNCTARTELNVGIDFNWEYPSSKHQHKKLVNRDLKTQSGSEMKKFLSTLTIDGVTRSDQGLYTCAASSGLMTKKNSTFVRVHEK
T2 sequence (P17948 27-331 limits assumed): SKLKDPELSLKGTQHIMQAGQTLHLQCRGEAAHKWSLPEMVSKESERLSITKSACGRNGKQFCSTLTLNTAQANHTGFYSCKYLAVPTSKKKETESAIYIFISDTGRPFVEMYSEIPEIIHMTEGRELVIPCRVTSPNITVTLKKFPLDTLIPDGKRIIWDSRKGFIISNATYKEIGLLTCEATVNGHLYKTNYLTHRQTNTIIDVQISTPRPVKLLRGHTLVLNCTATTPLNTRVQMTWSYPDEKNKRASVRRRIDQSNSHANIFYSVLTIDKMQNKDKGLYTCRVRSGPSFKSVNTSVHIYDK

Row | Binder | IC50 (KDR (1-3) monomer [2]) [nM] | Relative Binding Affinity (ratio to native VEGF (8-109)) (KDR (1-3) monomer [2]) [fold] | fold reduction in binding (IC50 variant / IC50 VEGF(1-109)) (KDR (1-3) monomer [1]) [fold] | fold reduction in binding (IC50 variant / IC50 VEGF(1-109)) (Flt-1 (1-3) monomer) [fold] | further results
1 | native VEGF (1-109) (ligand, human, UniProt P15692 207-315, looked up, 125I-labeled where used as tracer) APMAEGGGQNHHEVVKFMDVYQRSYCHPIETLVDIFQEYPDEIEYIFKPSCVPLMRCGGCCNDEGLECVPTEESNITMQIMRIKPHQGQHIGEMSFLQHNKCECRPKKD | – | – | – | – | IC50 (KDR (1-3) monomer [1]): 10 nM; IC50 (Flt-1 (1-3) monomer): 6 nM
2 | LK-VRB-19s (ligand, human, UniProt P15692-4 27-135, looked up, one of the two is probably misprinted) APMAEGGGQNHHEVVKFEDVYRRSSCHPIETLVDIFQEYPDEIEYIFKPSCVPLMRCGGCCNSEMRECVPTEESNITMQIMRIKPHQGQHIGEMSFLQHNKCECRPKKD | 7 | 7 | – | – | –
3 | LK-VRB-13s (ligand, human, UniProt P15692-4 27-135, looked up) APMAEGGGQNHHEVVKFEDVYQRSSCHPIETLVDIFQEYPDEIEYIFKPSCVPLMRCGGCCNSEMRECVPTEESNITMQIMRIKPHQGQHIGEMSFLQHNKCECRPKKD | 14 | 14 | – | – | –
4 | Gln 22** (ligand) APMAEGGGQNHHEVVKFMDVYARSYCHPIETLVDIFQEYPDEIEYIFKPSCVPLMRCGGCCNDEGLECVPTEESNITMQIMRIKPHQGQHIGEMSFLQHNKCECRPKKD | – | – | 6 | 15 | –
5 | LK-VRB-11s (ligand, human, UniProt P15692-4 27-135, looked up) APMAEGGGQNHHEVVKFEDVLQRSYCHPIETLVDIFQEYPDEIEYIFKPSCVPLMRCGGCCNSEMRECVPTEESNITMQIMRIKPHQGQHIGEMSFLQHNKCECRPKKD | 2 | 2 | – | – | –
6 | Glu 64* (ligand) APMAEGGGQNHHEVVKFMDVYQRSYCHPIETLVDIFQEYPDEIEYIFKPSCVPLMRCGGCCNDAGLECVPTEESNITMQIMRIKPHQGQHIGEMSFLQHNKCECRPKKD | – | – | 10 | 5 | –
7 | Gln 79* (ligand) APMAEGGGQNHHEVVKFMDVYQRSYCHPIETLVDIFQEYPDEIEYIFKPSCVPLMRCGGCCNDEGLECVPTEESNITMAIMRIKPHQGQHIGEMSFLQHNKCECRPKKD | – | – | 55 | 3 | –
8 | Glu 103 (ligand) APMAEGGGQNHHEVVKFMDVYQRSYCHPIETLVDIFQEYPDEIEYIFKPSCVPLMRCGGCCNDEGLECVPTEESNITMQIMRIKPHQGQHIGEMSFLQHNKCACRPKKD | – | – | 1 | 1 | –
9 | LK-VRB-10s (ligand, human, UniProt P15692-4 27-135, looked up) APMAEGGGQNHHEVVKFMDVYQRSSCHPIETLVDIFQEYPDEIEYIFKPSCVPLMRCGGCCNSEMRECVPTEESNITMQIMRIKPHQGQHIGEMSFLQHNKCECRPKKD | 0.5 | 0.5 | – | – | –
10 | Gly 65** (ligand) APMAEGGGQNHHEVVKFMDVYQRSYCHPIETLVDIFQEYPDEIEYIFKPSCVPLMRCGGCCNDEALECVPTEESNITMQIMRIKPHQGQHIGEMSFLQHNKCECRPKKD | – | – | 1 | 1 | –
11 | Gln 89 (ligand) APMAEGGGQNHHEVVKFMDVYQRSYCHPIETLVDIFQEYPDEIEYIFKPSCVPLMRCGGCCNDEGLECVPTEESNITMQIMRIKPHQGAHIGEMSFLQHNKCECRPKKD | – | – | 1 | 1 | –
12 | LK-VRB-14s (ligand, human, UniProt P15692-4 27-135, looked up) APMAEGGGQNHHEVVKFMDVLRRSYCHPIETLVDIFQEYPDEIEYIFKPSCVPLMRCGGCCNSEMRECVPTEESNITMQIMRIKPHQGQHIGEMSFLQHNKCECRPKKD | 0.5 | 0.5 | – | – | –
13 | LK-VRB-12s (ligand, human, UniProt P15692-4 27-135, looked up) APMAEGGGQNHHEVVKFEDVYRRSYCHPIETLVDIFQEYPDEIEYIFKPSCVPLMRCGGCCNSEMRECVPTEESNITMQIMRIKPHQGQHIGEMSFLQHNKCECRPKKD | 0.4 | 0.4 | – | – | –
14 | Asp 63** (ligand) APMAEGGGQNHHEVVKFMDVYQRSYCHPIETLVDIFQEYPDEIEYIFKPSCVPLMRCGGCCNAEGLECVPTEESNITMQIMRIKPHQGQHIGEMSFLQHNKCECRPKKD | – | – | 1 | 8 | –
15 | LK-VRB-16s (ligand, human, UniProt P15692-4 27-135, looked up) APMAEGGGQNHHEVVKFMDVYRRSSCHPIETLVDIFQEYPDEIEYIFKPSCVPLMRCGGCCNSEMRECVPTEESNITMQIMRIKPHQGQHIGEMSFLQHNKCECRPKKD | 0.6 | 0.6 | – | – | –
16 | Arg 105 (ligand) APMAEGGGQNHHEVVKFMDVYQRSYCHPIETLVDIFQEYPDEIEYIFKPSCVPLMRCGGCCNDEGLECVPTEESNITMQIMRIKPHQGQHIGEMSFLQHNKCECAPKKD | – | – | 1 | 1 | –
17 | LK-VRB-15s (ligand, human, UniProt P15692-4 27-135, looked up) APMAEGGGQNHHEVVKFMDVLQRSSCHPIETLVDIFQEYPDEIEYIFKPSCVPLMRCGGCCNSEMRECVPTEESNITMQIMRIKPHQGQHIGEMSFLQHNKCECRPKKD | 2 | 2 | – | – | –

Now from value to binder, other results behind:

Row | IC50 (KDR (1-3) monomer [2]) [nM] | Relative Binding Affinity (ratio to native VEGF (8-109)) (KDR (1-3) monomer [2]) [fold] | fold reduction in binding (IC50 variant / IC50 VEGF(1-109)) (KDR (1-3) monomer [1]) [fold] | fold reduction in binding (IC50 variant / IC50 VEGF(1-109)) (Flt-1 (1-3) monomer) [fold] | Binder | further results
18 | 3 | 3 | – | – | LK-VRB-17s (ligand, human, UniProt P15692-4 27-135, looked up) APMAEGGGQNHHEVVKFEDVLRRSYCHPIETLVDIFQEYPDEIEYIFKPSCVPLMRCGGCCNSEMRECVPTEESNITMQIMRIKPHQGQHIGEMSFLQHNKCECRPKKD | –
19 | 11 | 11 | – | – | LK-VRB-23s (ligand, human, UniProt P15692-4 27-135, looked up) APMAEGGGQNHHEVVKFEDVLRRSSCHPIETLVDIFQEYPDEIEYIFKPSCVPLMRCGGCCNDEGRECVPTEESNITMQIMRIKPHQGQHIGEMSFLQHNKCECRPKKD | –
20 | 2 | 2 | – | – | LK-VRB-20s (ligand, human, UniProt P15692-4 27-135, looked up) APMAEGGGQNHHEVVKFMDVLRRSSCHPIETLVDIFQEYPDEIEYIFKPSCVPLMRCGGCCNSEMRECVPTEESNITMQIMRIKPHQGQHIGEMSFLQHNKCECRPKKD | –
21 | 10 | 10 | – | – | LK-VRB-24s (ligand, human, UniProt P15692-4 27-135, looked up) APMAEGGGQNHHEVVKFEDVLRRSSCHPIETLVDIFQEYPDEIEYIFKPSCVPLMRCGGCCNSEMLECVPTEESNITMQIMRIKPHQGQHIGEMSFLQHNKCECRPKKD | –
22 | 23 | 23 | – | – | LK-VRB-26s (ligand, human, UniProt P15692-4 27-135, looked up) APMAEGGGQNHHEVVKFEDVLRRSSCHPIETLVDIFQEYPDEIEYIFKPSCVPLMRCGGCCNDEMRECVPTEESNITMQIMRIKPHQGQHIGEMSFLQHNKCECRPKKD | –
23 | 4 | 4 | – | – | LK-VRB-22s (ligand, human, UniProt P15692-4 27-135, looked up) APMAEGGGQNHHEVVKFEDVLRRSSCHPIETLVDIFQEYPDEIEYIFKPSCVPLMRCGGCCNDEMLECVPTEESNITMQIMRIKPHQGQHIGEMSFLQHNKCECRPKKD | –
24 | 3 | 3 | – | – | LK-VRB-21s (ligand, human, UniProt P15692-4 27-135, looked up) APMAEGGGQNHHEVVKFEDVLRRSSCHPIETLVDIFQEYPDEIEYIFKPSCVPLMRCGGCCNSEGLECVPTEESNITMQIMRIKPHQGQHIGEMSFLQHNKCECRPKKD | –
25 | 4 | 4 | – | – | LK-VRB-25s (ligand, human, UniProt P15692-4 27-135, looked up) APMAEGGGQNHHEVVKFEDVLRRSSCHPIETLVDIFQEYPDEIEYIFKPSCVPLMRCGGCCNSEGRECVPTEESNITMQIMRIKPHQGQHIGEMSFLQHNKCECRPKKD | –
